# Measurements published in patent publication US12258605B2, “Alkane oxidation by modified hydroxylases” (The California Institute of Technology, priority 2005, dated 2025).
# Assay: Ethane hydroxylation to ethanol (rate, total turnover)
# Format: biochemical
# Method: Ethane hydroxylation by 53-5H was measured after 12-hour incubations of the enzyme in ethane-saturated buffer containing an ethanol-free NADPH regeneration system (commercial NADPH contains 2-3% ethanol). While the reaction is uncoupled to NADPH oxidation in the presence of ethane (660 min-1, see Table 2), 53-5H nevertheless consistently produces at least 50 equivalents of ethanol independent of the starting concentration of enzyme (see FIGS. 2 and 3). Over oxidation was tested by supplying ethanol as a substrate and monitoring ethanol depletion by gas chromatography and the production of acetaldehyde and acetic acid by ^13C NMR using ^13C-labeled ethanol. No (i.e. less than 10%, the detection limit of these experiments) over oxidation products were detected in these experiments (see FIG. 4). In general, the hydrophobic active sites in P450s assist in the release of singly-hydroxylated products.
# Reactions on ethane were carried out similarly to those described for propane (Peters et al., J. Am. Chem. Soc. 125:13442 (2003); incorporated by reference herein). Because commercially-available NADPH contains 2-3% ethanol, an NADPH regeneration system was used. Thereby, the background ethanol concentration was reduced to approximately 1 μM. Ethane hydroxylation reactions were performed in 20 mL glass vials. A 5.0 mL reaction mixture contained 100, 200 or 500 nM purified protein in 0.1 M potassium phosphate buffer (pH 8.0) saturated with ethane and dioxygen. […] The vial was immediately topped with a septum, pressurized with 20 psi of ethane and stirred at 25° C. For determination of total turnover, the reaction was allowed to proceed for four hours. For rate determination the reaction was stopped at 0, 15 and 30 min. 50 μL of 5 mM 1-butanol was added to the reaction mixture as an internal standard. Ethanol and 1-butanol were subsequently derivatized to their corresponding alkyl nitrites. Control reactions were performed by repeating these steps without substrate and with inactivated protein, to correct for background levels of ethanol. […] Reactions with ethane and corresponding control reactions without ethane or with inactivated protein were carried out in triplicate. […]
# Rates of ethanol formation were measured over 30 min using gas chromatography (GC) coupled to an electron capture detector (ECD) and are reported as nmol ethanol/min/nmol enzyme. […] Total turnover number (ttn) was measured using GC after completion of the reaction and is reported as nmol product/nmol protein. […] Initial rates of propanol and octanol formation were measured over 1 min by GC and are reported as nmol product/min/nmol protein. […] The “ee” of 2-octanol (main product) was measured by GC; the favored enantiomer is listed in parenthesis. […]
molecule,measurement,setting,value
"35-E11: P450 BM-3 variant, SEQ ID NO:7: 53-5H substitutions plus E464G and I710T (protein, mutant P450 35-E11 protein sequence) TIKEMPQPKTFGELKNLPLLNTDKPVQALMKIADELGEIFKFEAPGCVTRYLSSQRLIKEACDESRFDKNLSQALKFFRDFSGDGLFTSWTHEINWKKAHNILLPSFSQQAMKGYHAMMVDIAVQLVQKWERLNADEHIEVSEDMTRLTLDTIGLCGFNYRFNSFYRDQPHPFIISMVRALDEVMNKLQRANPDDPAYDENKRQCQEDIKVMNDLVDKIIADRKARGEQSDDLLTQMLNGKDPETGEPLDDGNISYQIITFLIAGHETTSGLLSFALYFLVKNPHVLQKVVEEAARVLVDPVPSYKQVKQLKYVGMVLNEALRLWPTFPAFSLYAKEDTVLGGEYPLEKGDEVMVLIPQLHRDKTIWGDDVEEFRPERFENPSAIPQHAFKPFGNGQRACIGQQFALHEATLVLGMMLKHFDFEDHTNYELDIKETLTLKPEGFVVKAKSKKIPLGGIPSPSTGQSAKKVRKKAENAHNTPLLVLYGSNMGTAEGTARDLADIAMSKGFAPQVATLDSHAGNLPREGAVLIVTASYNGHPPDNAKQFVDWLDQASADEVKGVRYSVFGCGDKNWATTYQKVPAFIDETLAAKGAENIADRGEADASDDFEGTYEEWREHMWSDVAAYFNLDIENSEDNKSTLSLQFVDSAADMPLAKMHGAFSTNVVASKELQQPGSARSTRHLEIELPKEASYQEGDHLGVIPRNYEGTVNRVTARFGLDASQQIRLEAEEEKLAHLPLAKTVSVEELLQYVELQDPVTRTQLRAMAAKTVCPPHKVELEALLEKQAYKEQVLAKRLTMLELLEKYPACEMKFSEFIALLPSIRPRYYSISSSPRVDEKQASITVSVVSGEAWSGYGEYKGIASNYLAELQEGDTITCFISTPQSEFTLPKDPETPLIMVGPGTGVAPFRGFVQARKQLKEQGQSLGEAHLYFGCRSPHEDYLYQEELENAQSEGIITLHTAFSRMPNQPKTYVQHVMEQDGKKLIELLDQGAHFYICGDGSQMAPAVEATLMKSYADVHQVSEADARLWLQQLEEKGRYAKDVWAG",ethanol produced,"200 nM of mutant, typical reaction with ethane",over 50 μM
same,Ethane ttn,after completion of the reaction,250 nmol product/nmol protein
same,increase in total turnover of ethane to ethanol,compared to 53-5H,five-fold
same,Ethane Rate,"ethanol formation over 30 min, GC-ECD, dash = no activity",0.4 nmol ethanol/min/nmol enzyme
